Measured values taken from the supplement of paper PMC9732359.
± gives the uncertainty stated by the source.

Assay: protein stability index of a GFP-peptide fusion (yeast GPS) (PSI 1-4); higher = more stable; sorted into four equal gates, so the index is relative within each strain
How it was run: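 Tiled 17-residue yeast protein peptides were fused downstream of GFP in a plasmid that also expresses Cherry, and the pooled library was carried in yeast. Mid-log cultures in leucine-free medium were sorted into four equal gates by GFP/Cherry fluorescence ratio, and plasmids from each gate were PCR-amplified and Illumina-sequenced, with reads assigned to strains by barcodes. The protein stability index for each peptide was each gate's read frequency times its gate number, summed.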

Sequence | protein stability index (doa10∆) | protein stability index (pdr5∆) | protein stability index (san1∆) | protein stability index (ubr1∆)
TEGPSDKKLNLNLPLQF [SNF12] | 3.12 ± 0.1 | 3.31 ± 0.093 | 3.31 ± 0.091 | 2.87 ± 0.11
TEKNREIYKQLNDRQEE [YIL149C/MLP2] | 3.42 ± 0.073 | 3.41 ± 0.063 | 3.57 ± 0.042 | 3.12 ± 0.057
TELKKITDKTIKAFMDS [IRR1] | 2.99 ± 0.065 | 2.42 ± 0.054 | 2.46 ± 0.072 | 2.52 ± 0.079
TELSNKETTIEKLSSEI [YIL149C/MLP2] | 3.03 ± 0.073 | 2.96 ± 0.097 | 3.21 ± 0.072 | 3.13 ± 0.051
TEQFCATLNYIDKNHGF [SRB7] | 2.26 ± 0.055 | 2.99 ± 0.061 | 3.2 ± 0.057 | 2.47 ± 0.052
TEQTKSKNPLSLTEATK [YLR335W/NUP2] | 3.08 ± 0.045 | 2.97 ± 0.053 | 2.91 ± 0.062 | 3.14 ± 0.051
TESIALSSMRFKPSQEP [RRI1] | 2.85 ± 0.072 | 3.31 ± 0.064 | 3.3 ± 0.076 | 2.86 ± 0.057
TETKRLVVIRFGRKNDR [DIB1] | 2.87 ± 0.11 | 2.24 ± 0.089 | 2.03 ± 0.12 | 2.89 ± 0.065
TFEFINIAFDAHMSIGC [YML031W/NDC1] | 1.2 ± 0.074 | 1.38 ± 0.067 | 1.19 ± 0.13 | 1.33 ± 0.062
TFKSVSKYGMLLLRCDD [POP3] | 1.89 ± 0.058 | 2.01 ± 0.067 | 1.96 ± 0.12 | 1.72 ± 0.068
TFLPSYMKFSNKYLELC [RRI2] | 2.25 ± 0.052 | 2.35 ± 0.052 | 2.37 ± 0.073 | 2.37 ± 0.04
TFSGALGKQSSSLLSRL [FAS2] | 3.33 ± 0.097 | 3.23 ± 0.087 | 3.22 ± 0.065 | 2.93 ± 0.073
TFTIQLLKLTKVFIRES [YML103C/NUP188] | 2.17 ± 0.063 | 3.12 ± 0.08 | 2.46 ± 0.086 | 2.69 ± 0.12
TFVERLPNETINDRNDR [DIS3] |  |  |  | 2.28 ± 0.11
TFVYILEKLIFDMTNHY [SRB8] | 1.71 ± 0.061 | 1.93 ± 0.042 | 1.69 ± 0.1 | 1.69 ± 0.039
TGGGLFGSKPTGATSLF [YGL172W/NUP49] | 3.45 ± 0.11 | 3.57 ± 0.1 | 3.56 ± 0.045 | 3.62 ± 0.074
TGGQTIDNGTGRTGNGN [MED6] | 3.06 ± 0.13 | 2.82 ± 0.066 | 3.26 ± 0.079 | 2.72 ± 0.063
TGKERSKKRKLNSLTNL [SNM1] | 2.41 ± 0.11 | 3.04 ± 0.093 | 2.89 ± 0.075 | 2.67 ± 0.13
TGKVSEFISIYSNSHQM [RET1] | 2.83 ± 0.092 | 2.44 ± 0.12 | 3.03 ± 0.11 | 2.72 ± 0.073
TGMEPGKTSFFQALGVP [RPP0] | 2.89 ± 0.13 | 3.2 ± 0.098 | 3.23 ± 0.13 | 3.17 ± 0.073
TGNIKHEDLVNSIESKN [COR1] | 3.13 ± 0.093 | 2.99 ± 0.11 | 3.2 ± 0.075 | 2.96 ± 0.087
TGRLFQVEYALEAIKQG [PRE5] | 2.94 ± 0.11 | 2.5 ± 0.15 | 3.16 ± 0.17 | 2.26 ± 0.12
TGVSVEAVDDVFQAKMM [RPN11] | 2.8 ± 0.14 | 3.06 ± 0.12 | 2.92 ± 0.082 | 2.87 ± 0.13
TGWHVDQAIVTETKRLV [DIB1] | 1.88 ± 0.074 | 2.24 ± 0.075 | 2.08 ± 0.25 | 1.9 ± 0.077
THLHEALDIVCSDFVKI [NUT1] | 2.28 ± 0.089 | 2.48 ± 0.063 | 2.15 ± 0.11 | 1.92 ± 0.078
THNFKLSGVSNSMDMVD [RGR1] | 3.09 ± 0.068 | 3 ± 0.074 | 2.93 ± 0.06 | 3.08 ± 0.062

Sequence | protein stability index (doa10∆) | protein stability index (pdr5∆) | protein stability index (san1∆) | protein stability index (ubr1∆)
TIELAGGGYFSAAGMTA [FAS1] | 2.87 ± 0.12 | 3.19 ± 0.11 | 1.9 ± 0.16 | 2.84 ± 0.14
TIFSVMVEWLESRSFSP [PRP8] | 2.13 ± 0.077 | 1.99 ± 0.094 | 2.15 ± 0.15 | 1.88 ± 0.059
TIHAKRKIVFRCSECIK [RPN4] | 2.39 ± 0.056 | 2.73 ± 0.066 | 2.15 ± 0.11 | 2.59 ± 0.056
TIHRSFTICLNDRNPRL [CSN12] | 2.82 ± 0.065 | 2.76 ± 0.063 | 2.72 ± 0.069 | 2.65 ± 0.043
TILSSKLSNIWMQRQLI [SRB2] | 2.33 ± 0.11 | 1.96 ± 0.1 | 2.76 ± 0.1 | 2.82 ± 0.051
TINGKVNGRTKSNTIPV [GAL11] | 3 ± 0.091 | 2.77 ± 0.12 | 3.02 ± 0.099 | 3.19 ± 0.097
TISKTVSSTIPRETIPF [FAS2] | 2.96 ± 0.072 | 2.96 ± 0.084 | 2.75 ± 0.11 | 2.71 ± 0.052
TISSKPDILATDLIREK [YCS4] |  | 2.54 ± 0.25 | 3.4 ± 0.26 | 3.09 ± 0.066
TITTILILGLNTSIAQF [YML103C/NUP188] | 1.83 ± 0.039 | 1.67 ± 0.045 | 2.32 ± 0.076 | 2.28 ± 0.04
TIYNLQHHVTDADKLSF [YML031W/NDC1] | 1.94 ± 0.04 | 2.33 ± 0.053 | 1.98 ± 0.061 | 2.06 ± 0.04
TKAIQGCSKICDLSSKF [YCS4] | 3.15 ± 0.083 | 3.2 ± 0.069 | 3.37 ± 0.037 | 3.06 ± 0.098
TKEYLVQNLRSWETKLK [CSN9] | 2.96 ± 0.099 | 3.33 ± 0.21 | 3.1 ± 0.092 | 2.93 ± 0.13
TKHPSLKTLTHKQIHTT [POP7] | 2.21 ± 0.039 | 2.4 ± 0.04 | 2.21 ± 0.05 | 2.48 ± 0.04
TKKKRKPTEVNDSENNS [ITC1] | 3.26 ± 0.063 | 3.21 ± 0.081 | 3.16 ± 0.045 | 3.27 ± 0.054
TKKLIQKTVFDELCKLV [SRP54] | 1.1 ± 0.11 | 1.51 ± 0.096 | 1.25 ± 0.18 | 1.11 ± 0.095
TKKPLMVKNVKPSSPPD [SIR4] | 2.93 ± 0.061 | 2.66 ± 0.039 | 2.55 ± 0.058 | 2.69 ± 0.05
TKPEVASDMSDEDIITI [CDC53] | 2.89 ± 0.14 | 2.56 ± 0.24 |  | 2.92 ± 0.12
TKQRLDAYYDLELRNSV [PRP8] | 2.64 ± 0.046 | 2.93 ± 0.039 | 2.86 ± 0.039 | 2.74 ± 0.035
TKRSIAIVFEEIKNWIS [YMR129W/POM152] | 1.41 ± 0.043 | 1.82 ± 0.045 | 1.44 ± 0.076 | 1.91 ± 0.052
TLERVHLSYCSNLTIYP [GRR1] | 2.92 ± 0.067 | 3 ± 0.067 | 2.99 ± 0.15 | 3 ± 0.05
TLFVRDQDSAVVSSNIK [QCR2] | 2.67 ± 0.23 | 2.52 ± 0.2 |  | 2.67 ± 0.17
TLIDLVKHSPGAIKPFT [ECM29] | 2.16 ± 0.2 | 2.93 ± 0.15 | 1.95 ± 0.2 | 2.92 ± 0.099
TLIIDQVRKDLGNVIVP [NUT1] | 3.07 ± 0.29 |  | 3.12 ± 0.21 | 2.89 ± 0.14
TLISENWWHSEFEIPVS [BRR2] | 1.84 ± 0.11 | 1.59 ± 0.058 | 1.8 ± 0.1 | 1.25 ± 0.059
TLIVVPFNQGSKQDVEA [FAS2] | 2.87 ± 0.12 | 3.2 ± 0.12 | 3.13 ± 0.09 | 3.3 ± 0.12
TLQDFHLIFSNARIYNT [SNF2] | 2.25 ± 0.081 | 2.17 ± 0.1 | 1.63 ± 0.18 | 2.79 ± 0.073
